# Measured values published in patent US20230029835A1 (KEYMED BIOSCIENCES, published 2023).
# T1: Cynomolgus macaques TSLP recombinant protein (Cynomolgus macaques, UniProt Q969D9 29-159 (human entry), limits assumed, biotinylated in the blocking assays (sites not given))
# T1 construct: also called cyTSLP; biotinylated Cynomolgus macaques TSLP protein
# T1 chain: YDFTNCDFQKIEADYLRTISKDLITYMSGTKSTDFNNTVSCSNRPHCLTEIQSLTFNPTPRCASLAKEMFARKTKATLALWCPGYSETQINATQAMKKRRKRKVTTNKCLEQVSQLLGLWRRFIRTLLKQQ
# Tests used:
# [1] = biological target: T1, Cynomolgus macaques TSLP recombinant …; experiment: ELISA on coated cynomolgus TSLP;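 also: Read-out was TMB colorimetric signal measured as absorbance at 450 nm after 10 min development at 37 °C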
# Protocol: The plate was washed three times with PBS and blocked by adding 200 μL/well of PBS containing 2% skim milk for 1 hour. […] After washing with PBST and PBS three times, respectively, 100 μL of TMB substrate was added to each well for color development at 37° C. for 10 minutes, the reaction was terminated with 50 μL of 2M sulfuric acid solution per well, and the absorbance was read at a wavelength of 450 nm.
# [2] = biological target: T2, human TSLP recombinant protein (human, UniProt Q969D9 29-159, biotinylated in the blocking and cell-binding assays (sites not given)); experiment: ELISA on coated human TSLP;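 also: binding detected by TMB colour development for 10 min at 37 °C, then absorbance measured at 450 nm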
# T2 construct: also called biotinylated human TSLP protein
# [3] = biological target: T2, human TSLP recombinant protein; experiment: competition ELISA, biotin-human TSLP to coated human TSLPR-Fc
# Protocol: Human TSLPR recombinant protein was coated onto a 96-well microtiter plate at 1 μg/mL in carbonate buffer overnight at 4° C. The plate was washed three times with PBS and blocked by adding 200 μL/well of PBS containing 2% skim milk for 1 hour. […] The 96-well plate was washed three times with PBS, and 100 μL of the incubated mixture was added to each well and incubated for 1 hour at room temperature. After washing with PBST and PBS three times, respectively, 100 μL of SA-HRP was added to each well and incubated at room temperature for 30 minutes in the dark. After washing with PBST and PBS three times, respectively, 100 μL of TMB substrate was added to well for color development at 37° C. for 10 minutes, the reaction was terminated with 50 μL of 2M sulfuric acid solution per well, and the absorbance was read at a wavelength of 450 nm.
# [4] = biological target: T1, Cynomolgus macaques TSLP recombinant …; experiment: competition ELISA, biotin-cynomolgus TSLP to coated cynomolgus TSLPR-Fc
# Protocol: Cynomolgus macaques TSLPR recombinant protein was coated onto a 96-well microtiter plate at 1 g/mL in carbonate buffer overnight at 4° C. The plate was washed three times with PBS and blocked by adding 200 μL/well of PBS containing 2% skim milk for 1 hour. […] The 96-well plate was washed three times with PBS, and 100 μL of the incubated mixture was added to each well and incubated for 1 hour at room temperature. After washing with PBST and PBS three times, respectively, 100 μL of SA-HRP was added to each well and incubated at room temperature for 30 minutes in the dark. After washing with PBST and PBS three times, respectively, 100 μL of TMB substrate was added to well for color development at 37° C. for 10 minutes, the reaction was terminated with 50 μL of 2M sulfuric acid solution per well, and the absorbance was read at a wavelength of 450 nm.
# [5] = biological target: T2, human TSLP recombinant protein; experiment: flow cytometry competition, biotin-human TSLP to Ba/F3-hTSLPR-IL7Rα cells
# Protocol: Ba/F3-hTSLPR-IL7Rα cells were washed three times with PBS, centrifuged at 300 g for 3 minutes, and blocked with 3% BSA/PBS for 30 minutes. The cells were resuspended and added to a 96-well U-plate at 5×10⁴/well.
binder,measurement,setting,value
"Ab6 (antibody, V domains shown, Humanized; also called h39G5VHv6/h39G5VKv1) VH: QVQLVQSGAEVKKPGSSVKVSCKASGYTFTDYWMHWVRQAPGQGLEWMGTIDNSDSDTSLNQKFQGRVTLTVDTSTSTAYMELSSLRSEDTAVYYCARSLDGYYDYWGQGTLVTVSS VL: DIQMTQSPSSLSASVGDRVTITCRASENIYSYLAWYQQKPGKAPKLLIYNARTLPEGVPSRFSGSGSGTDFTLTISSLQPEDFATYYCQHHYTTPWTFGQGTKVEIK",binding result,[1],binds
same,EC50,[2],2.79 nM
"Ab9 (antibody, V domains shown, Humanized; also called h39G5VHv9/h39G5VKv1) VH: EVQLVQSGAEVKKPGESLKISCKASGYTFTDYWMHWVRQMPGKGLEWMGTIDNSDSDTSLNQSFQGHVTLSVDKSSTTAYLQWSSLKASDTAMYYCARSLDGYYDYWGQGTLVTVSS VL: DIQMTQSPSSLSASVGDRVTITCRASENIYSYLAWYQQKPGKAPKLLIYNARTLPEGVPSRFSGSGSGTDFTLTISSLQPEDFATYYCQHHYTTPWTFGQGTKVEIK",EC50,[1],209 nM
same,EC50,[2],3.03 nM
"Ab3 (antibody, V domains shown, Humanized; also called h39G5VHv3/h39G5VKv1) VH: EVQLVQSGAEVKKPGESLRISCKASGYSFISYWIHWVRQMPGKGLEWMGIIDPSDSDTSLNQSFQGHVTLSVDKSSTTAYLQWSSLKASDTAMYYCARSLDGYYDYWGQGTLVTVSS VL: DIQMTQSPSSLSASVGDRVTITCRASENIYSYLAWYQQKPGKAPKLLIYNARTLPEGVPSRFSGSGSGTDFTLTISSLQPEDFATYYCQHHYTTPWTFGQGTKVEIK",IC50,[3],1.65 nM
same,IC50,[4],0.62 nM
same,EC50,[1],2.22 nM
same,EC50,[2],0.22 nM
"Ab15 (antibody, V domains shown, Humanized; also called h39G5VHv15/h39G5VKv1) VH: EVQLVQSGAEVKKPGESLKISCKASGYTFTDYWMHWVRQMPGKGLEWMGTIDNSDSDTSLNQSFQGHVTISADKSSTTAYLQWSSLKASDTAMYYCARSLDGYYDYWGQGTLVTVSS VL: DIQMTQSPSSLSASVGDRVTITCRASENIYSYLAWYQQKPGKAPKLLIYNARTLPEGVPSRFSGSGSGTDFTLTISSLQPEDFATYYCQHHYTTPWTFGQGTKVEIK",binding result,[1],no binding
same,EC50,[2],62.9 nM
"Ab25 (antibody, V domains shown, Humanized; also called h39G5VHv6/h71G4VKv1) VH: QVQLVQSGAEVKKPGSSVKVSCKASGYTFTDYWMHWVRQAPGQGLEWMGTIDNSDSDTSLNQKFQGRVTLTVDTSTSTAYMELSSLRSEDTAVYYCARSLDGYYDYWGQGTLVTVSS VL: DIQMTQSPSSLSASVGDRVTITCRTSENIYSYLAWYQQKPGKAPKLLIYFAKTLTDGVPSRFSGSGSGTDFTLTISSLQPEDFATYYCQHHYGTPWTFGQGTKVEIK",IC50,[3],1.82 nM
same,IC50,[5],0.35 nM
same,IC50,[4],0.85 nM
same,EC50,[1],1.16 nM
same,EC50,[2],0.27 nM
"Ab5 (antibody, V domains shown, Humanized; also called h39G5VHv5/h39G5VKv1) VH: QVQLVQSGAEVKKPGSSVKVSCKASGYTFTDYWMHWVRQAPGQGLEWMGIIDPSDSDTSLNQKFQGRVTLTVDTSTSTAYMELSSLRSEDTAVYYCARSLDGYYDYWGQGTLVTVSS VL: DIQMTQSPSSLSASVGDRVTITCRASENIYSYLAWYQQKPGKAPKLLIYNARTLPEGVPSRFSGSGSGTDFTLTISSLQPEDFATYYCQHHYTTPWTFGQGTKVEIK",IC50,[3],1.69 nM
same,IC50,[4],0.28 nM
same,EC50,[1],2.85 nM
same,EC50,[2],0.26 nM
"Ab10 (antibody, V domains shown, Humanized; also called h39G5VHv10/h39G5VKv1) VH: QVQLVQSGAEVKKPGSSVKVSCKASGYTFTDYWMHWVRQAPGQGLEWMGIIDPSDSDTSLNQKFQGRVTITADTSTSTAYMELSSLRSEDTAVYYCARSLDGYYDYWGQGTLVTVSS VL: DIQMTQSPSSLSASVGDRVTITCRASENIYSYLAWYQQKPGKAPKLLIYNARTLPEGVPSRFSGSGSGTDFTLTISSLQPEDFATYYCQHHYTTPWTFGQGTKVEIK",IC50,[3],1.36 nM
same,IC50,[4],0.37 nM
same,EC50,[1],2.24 nM
same,EC50,[2],0.32 nM
"Ab16 (antibody, V domains shown, Humanized; also called h71G4VHv1/h39G5VKv1) VH: QVQLVQSGAEVKKPGSSVKVSCKASGYTFTDYWMHWVRQAPGQGLEWMGTIDNSDSDTTYNPSFQGHVTISADKSISTAYLQWSSLKASDTAMYYCARSVDGYLDYWGQGTLVTVSS VL: DIQMTQSPSSLSASVGDRVTITCRASENIYSYLAWYQQKPGKAPKLLIYNARTLPEGVPSRFSGSGSGTDFTLTISSLQPEDFATYYCQHHYTTPWTFGQGTKVEIK",EC50,[1],12.6 nM
same,EC50,[2],5.87 nM
"Ab4 (antibody, V domains shown, Humanized; also called h39G5VHv4/h39G5VKv1) VH: EVQLVQSGAEVKKPGESLRISCKASGYSFISYWIHWVRQMPGKGLEWMGIIDPSDSDTSLNQSFQGHVTISADKSISTAYLQWSSLKASDTAMYYCARSLDGYYDYWGQGTLVTVSS VL: DIQMTQSPSSLSASVGDRVTITCRASENIYSYLAWYQQKPGKAPKLLIYNARTLPEGVPSRFSGSGSGTDFTLTISSLQPEDFATYYCQHHYTTPWTFGQGTKVEIK",IC50,[3],1.69 nM
same,IC50,[4],0.43 nM
same,EC50,[1],5.54 nM
same,EC50,[2],0.39 nM
"Ab8 (antibody, V domains shown, Humanized; also called h39G5VHv8/h39G5VKv1) VH: EVQLVQSGAEVKKPGESLKISCKASGYTFTDYWMHWVRQMPGKGLEWMGIIDPSDSDTSLNQSFQGHVTLSVDKSSTTAYLQWSSLKASDTAMYYCARSLDGYYDYWGQGTLVTVSS VL: DIQMTQSPSSLSASVGDRVTITCRASENIYSYLAWYQQKPGKAPKLLIYNARTLPEGVPSRFSGSGSGTDFTLTISSLQPEDFATYYCQHHYTTPWTFGQGTKVEIK",IC50,[3],2.05 nM
same,IC50,[4],1 nM
same,EC50,[1],5.51 nM
same,EC50,[2],0.4 nM
"Ab18 (antibody, V domains shown, Humanized; also called h71G4VHv3/h39G5VKv1) VH: QVQLVQSGAEVKKPGSSVKVSCKASGYTFTDYWMHWVRQAPGQGLEWMGTIDNSDSDTTYNQKFQGRVTMTRDTSTSTVYMELSSLRSEDTAVYYCARSVDGYLDYWGQGTLVTVSS VL: DIQMTQSPSSLSASVGDRVTITCRASENIYSYLAWYQQKPGKAPKLLIYNARTLPEGVPSRFSGSGSGTDFTLTISSLQPEDFATYYCQHHYTTPWTFGQGTKVEIK",EC50,[1],17.9 nM
same,EC50,[2],2.15 nM
"Ab7 (antibody, V domains shown, Humanized; also called h39G5VHv7/h39G5VKv1) VH: QVQLVQSGAEVKKPGSSVKVSCKASGYTFTDYWMHWVRQAPGQGLEWMGTIDNSDSDTSLNQKFQGRVTLTVDESSSTAYMELSSLRSEDTAVYYCARSLDGYYDYWGQGTLVTVSS VL: DIQMTQSPSSLSASVGDRVTITCRASENIYSYLAWYQQKPGKAPKLLIYNARTLPEGVPSRFSGSGSGTDFTLTISSLQPEDFATYYCQHHYTTPWTFGQGTKVEIK",binding result,[1],binds
same,EC50,[2],1.89 nM
"Ab17 (antibody, V domains shown, Humanized; also called h71G4VHv2/h39G5VKv1) VH: QVQLVQSGAEVKKPGSSVKVSCKASGYTFTDYWMHWVRQAPGQGLEWMGTIDNSDSDTTYNQKFQGRVTLTVDTSTSTAYMELSSLRSEDTAVYYCARSVDGYLDYWGQGTLVTVSS VL: DIQMTQSPSSLSASVGDRVTITCRASENIYSYLAWYQQKPGKAPKLLIYNARTLPEGVPSRFSGSGSGTDFTLTISSLQPEDFATYYCQHHYTTPWTFGQGTKVEIK",EC50,[1],4.44 nM
same,EC50,[2],1.98 nM
"Ab13 (antibody, V domains shown, Humanized; also called h39G5VHv13/h39G5VKv1) VH: EVQLVQSGAEVKKPGESLKISCKASGYTFTDYWMHWVRQMPGKGLEWMGIIDPSDSDTSLNQSFQGHVTISADKSISTAYLQWSSLKASDTAMYYCARSLDGYYDYWGQGTLVTVSS VL: DIQMTQSPSSLSASVGDRVTITCRASENIYSYLAWYQQKPGKAPKLLIYNARTLPEGVPSRFSGSGSGTDFTLTISSLQPEDFATYYCQHHYTTPWTFGQGTKVEIK",IC50,[3],1.1 nM
same,IC50,[4],0.55 nM
same,EC50,[1],5.68 nM
same,EC50,[2],0.66 nM
"Ab27 (antibody, V domains shown, Humanized; also called h39G5VHv11/h71G4VKv1) VH: QVQLVQSGAEVKKPGSSVKVSCKASGYTFTDYWMHWVRQAPGQGLEWMGTIDNSDSDTSLNQKFQGRVTITADTSTSTAYMELSSLRSEDTAVYYCARSLDGYYDYWGQGTLVTVSS VL: DIQMTQSPSSLSASVGDRVTITCRTSENIYSYLAWYQQKPGKAPKLLIYFAKTLTDGVPSRFSGSGSGTDFTLTISSLQPEDFATYYCQHHYGTPWTFGQGTKVEIK",EC50,[1],4.22 nM
same,EC50,[2],1.08 nM
"Ab2 (antibody, V domains shown, Humanized; also called h39G5VHv2/h39G5VKv1) VH: QVQLVQSGAEVKKPGSSVKVSCKASGYSFISYWIHWVRQAPGQGLEWMGIIDPSDSDTSLNQKFQGRVTITADESTSTAYMELSSLRSEDTAVYYCARSLDGYYDYWGQGTLVTVSS VL: DIQMTQSPSSLSASVGDRVTITCRASENIYSYLAWYQQKPGKAPKLLIYNARTLPEGVPSRFSGSGSGTDFTLTISSLQPEDFATYYCQHHYTTPWTFGQGTKVEIK",IC50,[3],1.49 nM
same,IC50,[4],1.1 nM
same,EC50,[1],2.53 nM
same,EC50,[2],0.21 nM
"Ab1 (antibody, V domains shown, Humanized; also called h39G5VHv1/h39G5VKv1) VH: QVQLVQSGAEVKKPGSSVKVSCKASGYSFISYWIHWVRQAPGQGLEWMGIIDPSDSDTSLNQKFQGRVTLTVDKSSTTAYMELSSLRSEDTAVYYCARSLDGYYDYWGQGTLVTVSS VL: DIQMTQSPSSLSASVGDRVTITCRASENIYSYLAWYQQKPGKAPKLLIYNARTLPEGVPSRFSGSGSGTDFTLTISSLQPEDFATYYCQHHYTTPWTFGQGTKVEIK",IC50,[3],1.7 nM
same,IC50,[4],1.78 nM
same,EC50,[1],2.29 nM
same,EC50,[2],0.19 nM
"Ab11 (antibody, V domains shown, Humanized; also called h39G5VHv11/h39G5VKv1) VH: QVQLVQSGAEVKKPGSSVKVSCKASGYTFTDYWMHWVRQAPGQGLEWMGTIDNSDSDTSLNQKFQGRVTITADTSTSTAYMELSSLRSEDTAVYYCARSLDGYYDYWGQGTLVTVSS VL: DIQMTQSPSSLSASVGDRVTITCRASENIYSYLAWYQQKPGKAPKLLIYNARTLPEGVPSRFSGSGSGTDFTLTISSLQPEDFATYYCQHHYTTPWTFGQGTKVEIK",binding result,[1],binds
same,EC50,[2],36 nM
